Values joined by “and” are separate entries in the source; they are usually repeats but may differ in a detail not shown here. Identical values can stand only once.
Key:
[1] = target: T1, PADI4 (peptidyl-arginine deiminase 4), recombinant, dimeric (human, UniProt Q9UM07 1-663); assay: ITC
[2] = target: T1, PADI4 (peptidyl-arginine deiminase 4), …; assay: other fluorescence titration

T1 sequence (Q9UM07 whole entry): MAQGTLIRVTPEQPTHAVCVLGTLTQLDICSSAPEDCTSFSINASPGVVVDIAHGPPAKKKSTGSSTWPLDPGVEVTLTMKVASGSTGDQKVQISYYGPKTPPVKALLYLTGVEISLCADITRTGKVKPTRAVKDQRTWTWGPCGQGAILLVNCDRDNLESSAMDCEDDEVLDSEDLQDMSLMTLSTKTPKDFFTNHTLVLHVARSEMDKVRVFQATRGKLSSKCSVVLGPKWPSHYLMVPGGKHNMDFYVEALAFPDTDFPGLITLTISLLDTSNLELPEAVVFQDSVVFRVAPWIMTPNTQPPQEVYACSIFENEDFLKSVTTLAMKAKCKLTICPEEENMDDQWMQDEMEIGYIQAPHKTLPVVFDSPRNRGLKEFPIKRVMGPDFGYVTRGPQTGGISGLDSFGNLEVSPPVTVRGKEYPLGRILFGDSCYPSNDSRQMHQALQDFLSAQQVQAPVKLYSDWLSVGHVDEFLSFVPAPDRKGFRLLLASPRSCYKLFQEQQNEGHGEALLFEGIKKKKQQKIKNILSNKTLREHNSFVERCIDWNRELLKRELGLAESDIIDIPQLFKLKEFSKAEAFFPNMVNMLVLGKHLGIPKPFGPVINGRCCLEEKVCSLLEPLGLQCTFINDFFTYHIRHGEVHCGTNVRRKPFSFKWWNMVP

B1: His-tagged N-MDM2 (N-terminal region of MDM2, residues 6-125 of the intact protein) (domain or fragment, UniProt Q00987 6-125, looked up)
chain: MSVPTDGAVTTSQIPASEQETLVRPKPLLLKLLKSVGAQKDTYTMKEVLFYLGQYIMTKRLYDEKQQHIVYCSNDLLGDLFGVPSFSVKEHRKIYTMIYRNLVVVNQQESSDSGTSVSEN
modifications: 15N-labelled in the NMR experiment only
Kd [1]: 1 ± 0.2 µM | Kd [2]: 5 µM and ~6 µM

From paper PMC10364586 (Protein Science : A Publication of the Protein Society, 2023)
